According to the Human Domainome abundance scans (Beltran et al. 2025):
± gives the uncertainty stated by the source.

B1: Segment polarity protein dishevelled homolog DVL-3, residues 2 to 81; numbered along this chain, Q92997 (parent)
chain: GETKIIYHLDGQETPYLVKLPLPAERVTLADFKGVLQRPSYKFFFKSMDDDFGVVKEEISDDNAKLPCFNGRVVSWLVSA

Variants of: B1
Experiment: abundance fitness (aPCA) (normalised: wild type 0, dead -1); higher = more abundant; growth selection in yeast, the domain comes from the species named
Conditions: Homo sapiens

Row | Variant | abundance fitness
1 | K46H | -0.132 ± 0.12
2 | F43D | -0.64 ± 0.13
3 | K33H | -0.631 ± 0.24
4 | M48E | 0.09 ± 0.068
5 | V27T | -0.762 ± 0.16
6 | W76F | -0.482 ± 0.23
7 | D62Y | -0.604 ± 0.26
8 | A80T | 0.185 ± 0.089
9 | A64C | -0.346 ± 0.12
10 | V78K | -0.105 ± 0.12
11 | F43N | -0.565 ± 0.2
12 | R38M | 0.032 ± 0.064
13 | S40A | -0.024 ± 0.051
14 | D51E | -0.074 ± 0.11
15 | K42C | -0.624 ± 0.13
16 | D31V | -0.448 ± 0.086
17 | Y41T | -0.511 ± 0.1
18 | L20G | -0.625 ± 0.059
19 | V54K | -0.657 ± 0.14
20 | S60I | -0.325 ± 0.14
21 | K42A | -0.602 ± 0.099
22 | L22W | -0.578 ± 0.084

Row | Variant | abundance fitness
23 | E13M | -0.047 ± 0.085
24 | S75P | -0.59 ± 0.16
25 | T14K | 0.286 ± 0.052
26 | N63G | -0.175 ± 0.041
27 | H8P | -0.225 ± 0.1
28 | E13D | -0.129 ± 0.082
29 | E25C | -0.035 ± 0.083
30 | Q12Y | -0.019 ± 0.08
31 | F44P | -0.685 ± 0.12
32 | E25M | -0.335 ± 0.22
33 | S60C | 0.1 ± 0.072
34 | D10E | -0.016 ± 0.052
35 | F45V | -0.755 ± 0.087
36 | A24L | -0.356 ± 0.063
37 | E25K | -0.474 ± 0.11
38 | F44N | -0.653 ± 0.17
39 | G71H | -0.281 ± 0.12
40 | V54Q | -0.241 ± 0.089
41 | L36T | -0.824 ± 0.18
42 | N70K | 0.002 ± 0.12
43 | S47P | -0.675 ± 0.14
44 | D31L | -0.791 ± 0.11

Row | Variant | abundance fitness
45 | V74E | 0.195 ± 0.099
46 | T28C | -0.793 ± 0.16
47 | A80Q | -0.029 ± 0.29
48 | E57S | -0.137 ± 0.055
49 | D31N | -0.665 ± 0.3
50 | Y41P | -0.538 ± 0.12
51 | D10V | -0.726 ± 0.085
52 | Y16N | -0.157 ± 0.11
53 | F69L | -0.214 ± 0.07
54 | G11F | -0.586 ± 0.16
55 | S40V | 0.134 ± 0.046
56 | V73C | -0.347 ± 0.085
57 | G34H | -0.388 ± 0.16
58 | F69D | -0.352 ± 0.087
59 | Y41S | -0.72 ± 0.091
60 | L22C | -0.231 ± 0.1
61 | Q37E | 0.048 ± 0.058
62 | F44Y | -0.015 ± 0.095
63 | K56T | 0.162 ± 0.051
64 | P15Y | -0.743 ± 0.21
65 | V35A | 0.173 ± 0.052
66 | L77K | -0.261 ± 0.13

Row | Variant | abundance fitness
67 | D49E | -0.038 ± 0.07
68 | R38K | 0.147 ± 0.062
69 | G11Y | -0.391 ± 0.14
70 | R38Q | -0.069 ± 0.072
71 | P21H | -0.196 ± 0.1
72 | F32P | -0.686 ± 0.18
73 | A64D | -0.342 ± 0.14
74 | V18E | -0.68 ± 0.088
75 | V55G | -0.335 ± 0.046
76 | S75W | -0.603 ± 0.21
77 | P23T | -0.862 ± 0.14
78 | L36P | -0.244 ± 0.12
79 | D51W | -0.824 ± 0.24
80 | K19Q | -0.297 ± 0.084
81 | D31W | -0.618 ± 0.14
82 | G11E | -0.112 ± 0.061
83 | L20I | 0.101 ± 0.089
84 | K42W | -0.783 ± 0.12
85 | W76K | -0.709 ± 0.12
